Test results from article doi:10.1101/247270.

Biological target: Dansyl-calmodulin (dansyl-CaM), purified, P0DP23
Assay: other fluorescence titration
Conditions: remark: other sources report otherwise

B1: Regulator of G Protein Signaling 14 (RGS14), purified recombinant protein, O08773 1-544 (natural protein)
chain: MPGKPKHLGVPNGRMVLAVSDGELTSTSGSQAQGEGRGSSLSIHSLPSGPSSPFSTDEQPVASWAQSFERLLQDPRGLAYFTEFLKKEFSAENVTFWQACERFQQIPASDTKQLAQEAHNIYHEFLSSQALSPVNIDRQAWLSEEVLAQPRPDMFRAQQLQIFNLMKFDSYARFVKSPLYQECLLAEAEGRPLREPGSSHLGSPDTARKKPKLKPGKSLPLGVEELGQLPLAEGRPLRKSFRREMPGGAVNSALRRESQGSLNSSASLDLGFLAFVSSKSESHRKSLGSGEGESESRPGKYCCVYLPDGTASLALARPGLTIRDMLAGICEKRGLSLPDIKVYLVGKEQKALVLDQDCTVLADQEVRLENRITFQLELVGLERVVRISAKPTKRLQEALQPILAKHGLSLDQVVLHRPGEKQLVDLENLVSSVASQTLVLDTLPDAKTREASSIPPCRSQGCLPRTQTKDSHLPPLSSSLSVEDASGSTGKRQTCDIEGLVELLNRVQSSGAHDQRGLLRKEDLVLPEFLQLPSQRPGSQEAPP
modifications: here or on the partner: dansyl label (position not given)
  stoichiometry N: 1
